Results: patent publication US8680233B2, “Heteropeptides useful for reducing nonspecific adsorption” (Valorisation-Recherche, Limited Partnership, priority 2009, dated 2014)
pEC50, pKd: −log10 of the molar value. Numbered stars: 1 amine (or outer) side, 2 acyl side, 3 side chain; on linkers, the order of the positions; unused ones are H or OH. Square brackets hold non-standard residues; d marks the D form. Ends that are not written are not given here. Peptide text beside a SMILES is read from it. azaTyr = O=C(N(Cc1ccc(O)cc1)N[*:1])[*:2]; azaPhe = O=C(N(Cc1ccccc1)N[*:1])[*:2]; azaLeu = CC(C)CN(N[*:1])C(=O)[*:2]; azaGly = NNC(=O)O; Mpa = O=C(O)CCS

Tests used:
[1] = Surface concentration of the peptide monolayer on Au by SPR; assay type: physicochemical; settings: peptide SAM on Au SPR sensor; average of four replicates
Experimental: The surface coverage for each monolayer was measured according to the change in response of the SPR sensor in PBS for the bare Au surface relative to the peptide-coated Au surface. To measure the formation of the monolayers, each SPR sensor was mounted on a custom-made SPR instrument in the Kretschmann configuration based on a dove prism with wavelength interrogation as previously described (Bolduc et al., 2009, supra). An Ocean Optics™ USB4000 fibre optic spectrometer ranging from 550 to 850 nm was used to acquire the spectral information processed with Matlab to obtain the SPR sensorgram. A 25 μL Teflon fluidic cell positioned on top of the SPR sensors was used to inject the solutions required to functionalize with the recognition element and detect the analytes of interest. The SPR response was acquired at a frequency of 1 Hz. The s-polarized reference was acquired in PBS buffer before monitoring a 5 minute baseline in p-polarization. PBS was replaced with crude bovine serum (76 mg/mL protein) for 20 minutes and rinsed with PBS for 5 minutes to quantify the amount of non-specifically adsorbed proteins.
The formation of monolayers on Au was measured to ensure that the peptide monolayers are indeed binding to the SPR sensor. The surface concentration of the monolayer provides a measurement of the number of molecules per square cm (i.e. the density of the monolayer at the surface). The surface concentration (Γ) of peptide-like self-assembled monolayers (SAMs) was characterized with the measurement of the SPR response before the formation of the SAMs and after their formation on the Au surface of the SPR sensor. The difference of SPR wavelength (λSPR) between these two measurements increases with the increasing surface concentration of the SAMs following the equation proposed by Jung et al. (Jung, L. S. et al. Langmuir 1998, 14: 5636): Γ=ρ(−0.5/d)ln(1−(ΔλSPRm^−1(ηSAM−ηPBS)^−1)) (eq. 1)

[2] = Advancing contact angle in PBS on peptide SAMs; assay type: physicochemical; settings: average of four replicates
[3] = Secondary structure of peptide SAM by FT-IR (mid-IR amide band); assay type: physicochemical; settings: peptide SAM on gold-coated SPR sensor
Experimental: Microscope slides (BK7, 22×22 mm) were coated with a 3 nm titanium (Ti) adhesion layer and a 50 nm gold (Au) layer (purity 99.99%, ESPI metals) using a Cressington™ 308R sputter coater. These Au-coated SPR slides were immersed for at least 16 h in a 5 mM peptide solution in absolute ethanol to form a well-ordered monolayer (Masson, J. F. et al. Talanta 2004, 64: 716). Four replicates were prepared for each 3-MPA-peptide. The SAM formed on the SPR sensors was extensively rinsed with DMF and ethanol and dried. The mid-IR spectrum of the peptide monolayers immobilized on the SPR sensors was measured in attenuated total reflectance (ATR). Mid-IR spectra were recorded using a BRUKER TENSOR® 27 equipped with a Ge-ATR module.
The 3D structure of the peptides as SAMs is observed with the amide band visible in FT-IR. Peptides adopting an α-helix configuration are showing a strong amide band at 1645 cm^−1, while peptides auto-assembling in the β-sheet configuration leads to a shifted amide at 1675 cm^−1. Every peptide structure investigated in Table 1 adopted an α-helix configuration except for 3-MPA-HHHDD-OH, as shown in FIG. 3.
(§1) Peptides adopt secondary conformation, which plays a significant role in their biological activity. For peptides in solution, the secondary conformation is measured with CD, while peptides immobilized on a surface can be analyzed with mid-IR spectroscopy of the amide bands (Duevel, R. V., Corn, R. M., 1992. Analytical Chemistry 64(4), 337-342; Sakurai, T. et al., 2006. Journal of Peptide Science 12(6), 396-402). As listed in Table II, the secondary structure of most peptides adopted an α-helical conformation, with the exception of 3-MPA-DSDSD-OH, which adopted an extended conformation. As noted above, most peptides in the form of 3-MPA-peptide-OH adopt an α-helical conformation. Generally, mid-IR and CD agreed in the determination of the structures on surfaces and in solution, with the exception of one peptide. […] No relationship between structure and nonspecific adsorption could be established.

[4] = Secondary structure of peptide in solution by CD; assay type: physicochemical
Experimental: as §1

CD36 receptor = CD36 receptor (Homo sapiens, UniProt P16671); test: SRC-kinase cellular assay following CD36 receptor activation; assay type: cell-based; settings: activation of src-kinases after CD36 receptor activation
Excerpt: (§2) The SPR setup was used for investigating the structure-activity relationships of various CD36 peptidic ligands. […] The measured KD's were compared to the EC50 values obtained in the activated src-kinase assay following CD36 receptor activation by the tested peptides. […] For the src-kinase cellular assay, the response sensitivity (EC50) for the tested peptides (in decreasing order) was as follows: EP80317>CP-2A(v)>CP-3(iv)>DBG-178(27)>CP-2B(i). With SPR, the binding affinity to CD36, in decreasing order, was: DBG-178(27)>CP-2A(v)>EP80317>CP-3(iv)>CP-2B(i). […] For CD36-peptidic ligands, a correlation appears between the affinity binding of the small peptides for CD36 as determined by SPR and their efficiency to produce a cellular response in the src kinase assay. Thus, SPR appears as a selective and sensitive method to screen for CD36 ligands.

[5] = target: recombinant soluble His-tagged CD36 (Homo sapiens, UniProt P16671); test: SPR screening of peptide ligands on a CD36 functionalized sensor; assay type: binding; settings: for pKd: CD36 functionalized sensor, linear Langmuir plot
Experimental: The SPR sensors for screening small peptidic ligand binding to a recombinant soluble His-tagged CD36 functionalized surfaces were prepared as described above. Five ligands were investigated: EP80317, CP-2B(i), CP-3(iv), CP-2A(v) and DBG-178(27) with concentrations ranging from 30 μM to 100 nM except for EP80317. The latter was used for optimizing the system with solutions ranging from 1 mM to 100 nM. EP80317 (HAIC-2MeDTrp-DLys-Trp-D-Phe-Lys-NH2) is a positive control of known activity, CP-2B(i) (His-DTrp-AzaLeu-Trp-DPhe-Ala-NH2) is a negative control, and CP-3(iv) (Ala-DTrp-Ala-AzaPhe-DPhe-Lys-NH2), CP-2A(v) (His-DTrp-AzaGly-Trp-DPhe-Lys-NH2) and DBG-178(27) (His-DTrp-Ala-azaTyr-DPhe-Lys-NH2) are novel CD36 ligands (see PCT publication No. WO 08/154,738). Another negative control was accomplished by exposing the His-tagged hDHFR functionalized surface to the same concentration of CD36 peptidic ligand. Two different approaches were used to remove the His-tagged CD36-Cu complex from the SPR sensors: concentrated histidine solution or saturated EDTA solution.
This is the case of the CD36-ligand system investigated herein, where the ligands are small peptides of about 800 to 1000 g/mol. Indeed, according to the aforementioned principle, the binding of the small peptides to the CD36 receptor should be close to the limit of detection, thus providing unreliable affinity measurements. […] This could be a consequence of a large conformational change of the CD36 receptor upon binding of specific ligands, thus providing the amplification sufficient for SPR signal detection.
as §2

Chain of recombinant soluble His-tagged CD36 (P16671 30-439 limits assumed): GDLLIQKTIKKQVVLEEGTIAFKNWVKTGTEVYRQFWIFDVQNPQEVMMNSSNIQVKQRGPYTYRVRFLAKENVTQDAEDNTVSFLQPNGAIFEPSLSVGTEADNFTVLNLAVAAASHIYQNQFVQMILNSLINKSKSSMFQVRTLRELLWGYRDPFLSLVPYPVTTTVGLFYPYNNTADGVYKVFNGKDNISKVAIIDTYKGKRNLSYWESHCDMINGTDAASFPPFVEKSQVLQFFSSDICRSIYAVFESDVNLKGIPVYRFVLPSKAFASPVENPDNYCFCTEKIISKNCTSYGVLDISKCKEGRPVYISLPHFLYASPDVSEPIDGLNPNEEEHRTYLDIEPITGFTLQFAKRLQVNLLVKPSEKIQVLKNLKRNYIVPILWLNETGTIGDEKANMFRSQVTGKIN
Chain of CD36 receptor (P16671 whole entry): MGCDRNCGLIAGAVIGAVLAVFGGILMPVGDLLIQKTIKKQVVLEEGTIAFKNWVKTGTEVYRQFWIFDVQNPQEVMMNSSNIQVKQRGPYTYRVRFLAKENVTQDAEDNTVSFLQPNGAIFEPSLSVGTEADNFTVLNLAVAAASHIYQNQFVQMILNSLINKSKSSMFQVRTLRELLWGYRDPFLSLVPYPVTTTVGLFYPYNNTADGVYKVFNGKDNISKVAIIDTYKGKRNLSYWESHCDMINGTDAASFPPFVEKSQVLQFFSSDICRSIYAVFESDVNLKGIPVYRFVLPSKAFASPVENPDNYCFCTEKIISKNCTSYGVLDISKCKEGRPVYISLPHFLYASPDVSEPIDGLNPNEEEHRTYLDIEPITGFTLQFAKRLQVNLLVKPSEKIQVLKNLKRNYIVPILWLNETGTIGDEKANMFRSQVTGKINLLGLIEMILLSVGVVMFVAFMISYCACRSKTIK

Row | Compound | Surface density ΔΓSAM [1] | Contact angle in PBS θC_PBS [2] [°] | Secondary Structure FT-IR (SAM) [3] | Secondary Structure CD (solution) [4] | other results
1 | 3-MPA-LLLHH ([Mpa]LLLHH) | 0.296 10^15 molecule/cm^2 | 41.4 | – | – | –
2 | 3-MPA-SSSDD ([Mpa]SSSDD) | 0.441 10^15 molecule/cm^2 | 38.8 | – | – | –
3 | 3-MPA-LLLSS ([Mpa]LLLSS) | 0.255 10^15 molecule/cm^2 | 32.6 | – | – | –
4 | 3-MPA-GGHHDD-OH ([Mpa]GGHHDD-OH; SMILES O=C(O)C[C@H](NC(=O)[C@H](CC(=O)O)NC(=O)[C@H](Cc1c[nH]cn1)NC(=O)[C@H](Cc1c[nH]cn1)NC(=O)CNC(=O)CNC(=O)CCS)C(=O)O) | – | – | α | α | –
5 | 3-MPA-DHDHD-OH ([Mpa]DHDHD-OH; SMILES O=C(O)C[C@H](NC(=O)[C@H](Cc1c[nH]cn1)NC(=O)[C@H](CC(=O)O)NC(=O)[C@H](Cc1c[nH]cn1)NC(=O)[C@H](CC(=O)O)NC(=O)CCS)C(=O)O) | – | – | α | α | –
6 | 3-MPA-LLHHDD-OH ([Mpa]LLHHDD-OH; SMILES CC(C)C[C@H](NC(=O)CCS)C(=O)N[C@@H](CC(C)C)C(=O)N[C@@H](Cc1c[nH]cn1)C(=O)N[C@@H](Cc1c[nH]cn1)C(=O)N[C@@H](CC(=O)O)C(=O)N[C@@H](CC(=O)O)C(=O)O) | – | – | α | α | –
7 | C[C@H](NC(=O)[C@@H](Cc1c[nH]c2ccccc12)NC(=O)[C@@H](N)Cc1cnc[nH]1)C(=O)NN(Cc1ccc(O)cc1)C(=O)N[C@H](Cc1ccccc1)C(=O)N[C@@H](CCCCN)C(N)=O [DBG-178(27), His-DTrp-Ala-azaTyr-DPhe-Lys-NH2] (H-H[dW]A[azaTyr][dF]K-NH2) | – | – | – | – | pEC50 (CD36 receptor): 7.20; pKd [5]: 7.66
8 | 3-MPA-DDDHH ([Mpa]DDDHH) | 0.279 10^15 molecule/cm^2 | 46.4 | – | – | –
9 | 3-MPA-GGGGD-OH ([Mpa]GGGGD-OH; SMILES O=C(O)C[C@H](NC(=O)CNC(=O)CNC(=O)CNC(=O)CNC(=O)CCS)C(=O)O) | – | – | α | α | –
10 | 3-MPA-SSSHH ([Mpa]SSSHH) | 0.301 10^15 molecule/cm^2 | 40.0 | – | – | –
11 | 3-MPA-DDDSS ([Mpa]DDDSS) | 0.311 10^15 molecule/cm^2 | 51.2 | – | – | –
12 | C[C@H](N)C(=O)N[C@H](Cc1c[nH]c2ccccc12)C(=O)N[C@@H](C)C(=O)NN(Cc1ccccc1)C(=O)N[C@H](Cc1ccccc1)C(=O)N[C@@H](CCCCN)C(N)=O [CP-3(iv), Ala-DTrp-Ala-AzaPhe-DPhe-Lys-NH2] (H-A[dW]A[azaPhe][dF]K-NH2) | – | – | – | – | pEC50 (CD36 receptor): 7.36; pKd [5]: 6.42
13 | 3-MPA-SHDSHD-OH ([Mpa]SHDSHD-OH; SMILES O=C(O)C[C@H](NC(=O)[C@H](Cc1c[nH]cn1)NC(=O)[C@H](CO)NC(=O)[C@H](CC(=O)O)NC(=O)[C@H](Cc1c[nH]cn1)NC(=O)[C@H](CO)NC(=O)CCS)C(=O)O) | – | – | α-helical and α | extended | –
14 | NCCCC[C@H](NC(=O)[C@@H](Cc1ccccc1)NC(=O)[C@H](Cc1c[nH]c2ccccc12)NC(=O)NNC(=O)[C@@H](Cc1c[nH]c2ccccc12)NC(=O)[C@@H](N)Cc1cnc[nH]1)C(N)=O [CP-2A(v), His-DTrp-AzaGly-Trp-DPhe-Lys-NH2] (H-H[dW][azaGly]W[dF]K-NH2) | – | – | – | – | pEC50 (CD36 receptor): 7.59; pKd [5]: 7.36
15 | 3-MPA-LHDLHD-OH ([Mpa]LHDLHD-OH; SMILES CC(C)C[C@H](NC(=O)CCS)C(=O)N[C@@H](Cc1c[nH]cn1)C(=O)N[C@@H](CC(=O)O)C(=O)N[C@@H](CC(C)C)C(=O)N[C@@H](Cc1c[nH]cn1)C(=O)N[C@@H](CC(=O)O)C(=O)O) | – | – | α | α | –
16 | 3-MPA-DSDSD-OH ([Mpa]DSDSD-OH; SMILES O=C(O)C[C@H](NC(=O)[C@H](CO)NC(=O)[C@H](CC(=O)O)NC(=O)[C@H](CO)NC(=O)[C@H](CC(=O)O)NC(=O)CCS)C(=O)O) | – | – | extended | extended | –
17 | 3-MPA-HHHSS ([Mpa]HHHSS) | 0.125 10^15 molecule/cm^2 | 39.9 | – | – | –
18 | CC(C)CN(NC(=O)[C@@H](Cc1c[nH]c2ccccc12)NC(=O)[C@@H](N)Cc1c[nH]cn1)C(=O)N[C@@H](Cc1c[nH]c2ccccc12)C(=O)N[C@H](Cc1ccccc1)C(=O)N[C@@H](C)C(N)=O [CP-2B(i), His-DTrp-AzaLeu-Trp-DPhe-Ala-NH2, reference compound] (H-H[dW][azaLeu]W[dF]A-NH2) | – | – | – | – | Binding affinity to CD36 (in words) ([5]; negative control): low binding affinity
19 | 3-MPA-LLLDD ([Mpa]LLLDD) | 0.352 10^15 molecule/cm^2 | 52.3 | – | – | –
